Measured values published in patent publication EP4342487A2, “PHARMACEUTICAL COMPOSITION COMPRISING GIP DERIVATIVE OR LONG-ACTING CONJUGATE THEREOF FOR PREVENTING OR TREATING PULMONARY DISEASE” (Hanmi Pharm. Co., Ltd., priority 2021, dated 2022).
Where no end group is shown, it is not given here. [ ]: non-standard residue; d: D form. Aib = CC(C)(N)C(=O)O

T1: human GIP receptor (human, UniProt P48546 22-466)
T1 sequence (looked up): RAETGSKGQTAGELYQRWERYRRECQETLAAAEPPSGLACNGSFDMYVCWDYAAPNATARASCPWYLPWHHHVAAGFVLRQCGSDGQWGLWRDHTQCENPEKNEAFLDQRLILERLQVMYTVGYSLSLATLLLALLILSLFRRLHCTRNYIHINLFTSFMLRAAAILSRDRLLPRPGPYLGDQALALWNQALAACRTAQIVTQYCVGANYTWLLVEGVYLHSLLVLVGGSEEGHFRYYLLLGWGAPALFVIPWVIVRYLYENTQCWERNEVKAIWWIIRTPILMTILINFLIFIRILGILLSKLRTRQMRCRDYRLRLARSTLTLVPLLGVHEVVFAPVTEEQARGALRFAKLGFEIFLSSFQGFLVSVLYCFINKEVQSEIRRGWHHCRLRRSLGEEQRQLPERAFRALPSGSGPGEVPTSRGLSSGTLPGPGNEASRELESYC


Target: T1, human GIP receptor
Experiment: cell-based or functional assay

Binder	In vitro activity (%) of GIP derivatives compared to human native GIP in human GIP receptors (EC50 from accumulated cAMP, CHO cells expressing the human GIP receptor) [%]
Y[Aib]EGTFISDYSI[Aib]MDAIAQQDFVNWLLAGGPSSGAPPPSC (not fully specified) [GIP derivative of SEQ ID NO: 3]	15.6
Y[Aib]EGTFISDYSIAMDKIAQQDFVNWLLAQKPSSGAPPPSC (not fully specified) [GIP derivative of SEQ ID NO: 15]	31.1
Y[Aib]EGTFISDYSIYLDKQAA[Aib]EFVNWLL[Aib]GHPSSGAPPPSC (not fully specified) [GIP derivative of SEQ ID NO: 19]	66.7
Y[Aib]EGTFISDYSIYLDKQAA[Aib]EFVNWLLAQKC (not fully specified) [GIP derivative of SEQ ID NO: 13]	31.1
Y[Aib]EGTFISDYSIAMDGIAQQDFVNWLLAQKPSSGAPPPSC (not fully specified) [GIP derivative of SEQ ID NO: 16]	11.3
Y[Aib]EGTFISDYSIALEKQAQQDFVNWLLAGGPSSGAPPPSC (not fully specified) [GIP derivative of SEQ ID NO: 17]	111
Y[Aib]EGTFISDYSIQMDAIAQQDFVNWLLAGGPSSGAPPPSC (not fully specified) [GIP derivative of SEQ ID NO: 5]	12.1
Y[Aib]EGTFISDYSIAMDAIAQQDFVNWLLAQKPSSGAPPPSC (not fully specified) [GIP derivative of SEQ ID NO: 1]	49.3
Y[Aib]EGTFISDYSIYLDKQAAQEFVNWLLAQKPSSGAPPPSC (not fully specified) [GIP derivative of SEQ ID NO: 18]	13.6
Y[Aib]EGTFISDYSIYLDKQAA[Aib]EFVNWLL[Aib]GGPSSGAPPPSC (not fully specified) [GIP derivative of SEQ ID NO: 20]	75.3
Y[Aib]EGTFISDYSIYLDKQAQKEFVNWLL[Aib]GGPSSGAPPPSC (not fully specified) [GIP derivative of SEQ ID NO: 23]	87.6
Y[Aib]EGTFISDYSIAMDAIAQQDFVNWLLAGGPSSGAPPPSC (not fully specified) [GIP derivative of SEQ ID NO: 2]	13.9
Y[Aib]EGTFISDYSIYLDAQAA[Aib]EFVNWLLAQKC (not fully specified) [GIP derivative of SEQ ID NO: 14]	17.4
Y[Aib]EGTFISDYSIYLDKQAA[Aib]EFVQWLIAGHPSSGAPPPC (not fully specified) [GIP derivative of SEQ ID NO: 26]	66.7
Y[Aib]EGTFISDYSIYLDAQAQQDFVNWLLAGGPSSGAPPPSC (not fully specified) [GIP derivative of SEQ ID NO: 7]	19.6
Y[Aib]EGTFISDYSIYLDAQAAKEFIAWLLAGGPSSGAPPPSC (not fully specified) [GIP derivative of SEQ ID NO: 10]	13.9
Y[Aib]EGTFISDYSIYMDAIAQQDFVNWLLAGGPSSGAPPPSC (not fully specified) [GIP derivative of SEQ ID NO: 4]	10.5
Y[Aib]EGTFISDYSIYLDKQAA[Aib]EFVNWLLAGHPSSGAPPPSC (not fully specified) [GIP derivative of SEQ ID NO: 22]	71.6
Y[Aib]EGTFISDYSI[Aib]LDKQAA[Aib]EFVNWLL[Aib]GGPSSGAPPPSC (not fully specified) [GIP derivative of SEQ ID NO: 21]	123
Y[Aib]EGTFISDYSIYLDKQAA[Aib]EFVQWLI[Aib]GGPSSGAPPPSC (not fully specified) [GIP derivative of SEQ ID NO: 25]	78.3
Y[Aib]EGTFISDYSIAMDAIAQQDFVNWLLAQKGKKNDWKHNITQC (not fully specified; printed as YAibEGT FISDYSIAMDAIAQQDFVNWLLAQKGKKNDWKHNITQC) [GIP derivative of SEQ ID NO: 11]	122
Y[Aib]EGTFISDYSIYLDAQAA[Aib]DFVNWLLAGGPSSGAPPPSC (not fully specified) [GIP derivative of SEQ ID NO: 8]	1.9
Y[Aib]EGTFISDYSIYLDAIAQQDFVNWLLAGGPSSGAPPPSC (not fully specified) [GIP derivative of SEQ ID NO: 6]	17.4
Y[Aib]EGTFISDYSI[Aib]LDKQAA[Aib]EFVNWLL[Aib]GHPSSGAPPPSC (not fully specified) [GIP derivative of SEQ ID NO: 24]	183
Y[Aib]EGTFISDYSIYLDAQAAKDFVNWLLAGGPSSGAPPPSC (not fully specified) [GIP derivative of SEQ ID NO: 9]	2
